Consider two molecules from patent publication US20230061973A1 (LARIMAR THERAPEUTICS, published 2023).

Test [1] concerns the target exemplary TAT frataxin fusion molecule (HIV-1) (UniProt Q16595). The test can be described thus: immunopurification from plasma on antibody-coated magnetic beads, trypsin digest, LC/MS of peptide ….
Test [2] has the same target. The test can be described thus: PK sandwich ELISA in human plasma, antibody as capture, HRP anti-frataxin mAb detection.
The target is the same in test [3]. The test can be described thus: bridging (ADA) assay in human plasma: antibody titrated with biotinylated and sulfo-tagged TAT frataxin fusion molecule, streptavidin plate, ECL read-out.
The target of test [4] is T1, exemplary TAT frataxin fusion molecule (HIV-1, UniProt Q16595 1-210).
T1 construct: in the bridging assays biotinylated and sulfotagged forms were used; also called TAT-FXN fusion molecule; TAT FXN fusion molecule
T1 sequence: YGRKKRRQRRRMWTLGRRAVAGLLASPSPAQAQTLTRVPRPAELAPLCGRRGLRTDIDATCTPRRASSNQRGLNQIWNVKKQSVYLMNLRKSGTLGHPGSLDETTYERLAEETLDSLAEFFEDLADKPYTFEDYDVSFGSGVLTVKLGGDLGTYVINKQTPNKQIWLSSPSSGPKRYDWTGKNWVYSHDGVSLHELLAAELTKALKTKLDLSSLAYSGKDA
The test can be described thus: PK sandwich ELISA in human plasma, antibody as capture, HRP anti-frataxin mAb detection.

As for “polyclonal anti-TAT E8332 polyclonal antibody”, the LC/MS signal after immunopurification, fold higher than with anti-TAT antibody ab63957 in test [1] was 5 fold higher. Besides, in test [2], the Mean OD at plasma conc. 0.400 ng/mL is 0.075 OD, the Mean OD at plasma conc. 0.800 ng/mL came out at 0.113 OD, the Mean OD at plasma conc. 1.60 ng/mL is 0.165 OD and the Mean OD at plasma conc. 3.20 ng/mL was 0.322 OD. In addition, in test [2], the Mean OD at plasma conc. 6.40 ng/mL was 0.631 OD, the Mean OD at plasma conc. 12.8 ng/mL is 1.08 OD, the Mean OD at plasma conc. 25.6 ng/mL stood at 1.83 OD and the Mean OD at plasma conc. 51.2 ng/mL is 3.1 OD. In test [2], this molecule registered a S/N at plasma conc. 0.400 ng/mL of 1.5, a S/N at plasma conc. 0.800 ng/mL of 2.3, a S/N at plasma conc. 1.60 ng/mL of 3.4 and a S/N at plasma conc. 3.20 ng/mL of 6.6. Also, in test [2], the S/N at plasma conc. 6.40 ng/mL was found to be 12.9, the S/N at plasma conc. 12.8 ng/mL stood at 22.1, the S/N at plasma conc. 25.6 ng/mL was 37.3 and the S/N at plasma conc. 51.2 ng/mL was 63.3. Also, the EC50 (read off the curve) in test [3] was determined as 20000 ng/mL.

B1: antibody 10-5 (antibody, V domains shown)
VH: QSLEESGGDLVKPGASLTLTCTASGFSFSSGYWICWVRQAPGKGLEWIACIYTGDGDTSYASWAKGRFTISKTSSTTVTLQMTSLTVADTAIYFCARDTSGTFYYNLWGPGTLVAVSS
VL: DVVMTQTPSPVSAPVGGTVTINCQASQNIYSNLAWYQQKPGQPPKLLIYGASTLASGVSSRFKGSRSGTEFTLTISDLECADAATYYCQSYVYSSSTADTFGGGTKVVVE
notes: Rabbit monoclonal
In the case of B1, in test [4], the “Mean OD at plasma conc. 0.400 ng/mL” value was determined as 0.071 OD, the “Mean OD at plasma conc. 0.800 ng/mL” value came out at 0.09 OD, the “Mean OD at plasma conc. 1.60 ng/mL” value worked out at 0.135 OD and the “Mean OD at plasma conc. 3.20 ng/mL” value is 0.23 OD. In addition, in test [4], the “Mean OD at plasma conc. 6.40 ng/mL” value turned out to be 0.447 OD, the “Mean OD at plasma conc. 12.8 ng/mL” value amounted to 0.819 OD, the “Mean OD at plasma conc. 25.6 ng/mL” value was found to be 1.53 OD and the “Mean OD at plasma conc. 51.2 ng/mL” value turned out to be 2.86 OD. In test [4], the “S/N at plasma conc. 0.400 ng/mL” value came to 1.5, the “S/N at plasma conc. 0.800 ng/mL” value came to 1.9, the “S/N at plasma conc. 1.60 ng/mL” value worked out at 2.9 and the “S/N at plasma conc. 3.20 ng/mL” value was 4.9. Also, in test [4], the “S/N at plasma conc. 6.40 ng/mL” value amounted to 9.5, the “S/N at plasma conc. 12.8 ng/mL” value amounted to 17.4, the “S/N at plasma conc. 25.6 ng/mL” value stood at 32.5 and the “S/N at plasma conc. 51.2 ng/mL” value came out at 60.8.
